These are literature values, as cited in publication PMC6143667.

The term Kd denotes the free concentration of one partner at which half of the binding sites on the other are occupied at equilibrium, for simple one-to-one binding.

This series has as its target PKA catalytic subunit (UniProt P17612).

In the case of “PKA regulatory subunit RII (from UniProt P31323)”, the Kd is 0.1 nM.
